# Molecular target: Rhodamine green-Gly-Gly-dPhe-Leu-Arg-Arg-Val-Cys(QSY 7)-betaAla-NH2
substance,measurement,value
recombinant human neutral endopeptidase (NEP) (from UniProt P08473) (enzyme),"Km (steady state kinetics, FRET cleavage assay)",8 µM
